Data taken from patent US20110166062A1 (INDIANA UNIVERSITY RESEARCH AND TECHNOLOGY, published 2011).
*1 amine or outer side, *2 acyl side, *3 side chain or, on linkers, in order; H or OH if unused. Bridges are numbered along the chain shown (N, C = ends). Primed or numbered codes have the meaning given here. Where no end group is shown, it is not given here. Side-chain parts run from the residue outwards. [ ]: non-standard residue; d: D form. The star is where a group is joined. Cys(PEG 40 kDa) = Cys with a 40 kDa PEG covalently attached to its side chain (alpha amino acetyl-capped, Ac); PEG 40 kDa″ = polyethylene glycol of 40 kDa covalently attached to the side chain; γGlu = O=C(O)[C@H](CCC(=O)[*:2])N[*:1]; Palmitoyl = CCCCCCCCCCCCCCCC(=O)*; Myristoyl = CCCCCCCCCCCCCC(=O)*; PEG = not defined here; Aib = CC(C)(N)C(=O)O

T1: GIP receptor (UniProt P48546 22-466)
T1 sequence (looked up): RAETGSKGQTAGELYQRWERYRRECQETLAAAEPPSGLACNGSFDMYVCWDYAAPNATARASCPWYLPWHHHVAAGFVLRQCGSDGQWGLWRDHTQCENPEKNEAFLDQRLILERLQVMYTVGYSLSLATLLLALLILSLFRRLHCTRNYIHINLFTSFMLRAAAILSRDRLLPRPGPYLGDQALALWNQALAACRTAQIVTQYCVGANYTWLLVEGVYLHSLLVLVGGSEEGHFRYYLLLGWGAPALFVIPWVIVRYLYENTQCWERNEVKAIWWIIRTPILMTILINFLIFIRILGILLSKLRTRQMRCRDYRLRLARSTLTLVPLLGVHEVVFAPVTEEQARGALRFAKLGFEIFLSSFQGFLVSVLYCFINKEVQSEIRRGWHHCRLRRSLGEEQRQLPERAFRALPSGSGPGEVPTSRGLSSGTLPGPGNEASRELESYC

T2: GIP receptor (UniProt P48546 22-466)
T2 sequence (looked up): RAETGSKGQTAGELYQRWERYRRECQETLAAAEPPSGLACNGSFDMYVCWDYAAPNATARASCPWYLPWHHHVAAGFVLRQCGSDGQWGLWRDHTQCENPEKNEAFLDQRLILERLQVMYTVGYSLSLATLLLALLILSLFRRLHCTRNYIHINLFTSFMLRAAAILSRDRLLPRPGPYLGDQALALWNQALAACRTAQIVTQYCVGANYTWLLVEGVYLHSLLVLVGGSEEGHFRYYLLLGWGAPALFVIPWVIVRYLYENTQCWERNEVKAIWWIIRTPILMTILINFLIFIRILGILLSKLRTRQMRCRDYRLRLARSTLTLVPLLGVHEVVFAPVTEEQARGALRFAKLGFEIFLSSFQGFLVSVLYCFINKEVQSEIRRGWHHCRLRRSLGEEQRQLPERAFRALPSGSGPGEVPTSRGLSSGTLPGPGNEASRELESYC


What was measured:
Test in all cases: cell-based or functional assay
GIP receptor [1] = target: T1, GIP receptor
glucagon receptor [2] = target: glucagon receptor (UniProt P47871 26-477, limits assumed)
Target sequence in this assay (P47871 26-477 limits assumed): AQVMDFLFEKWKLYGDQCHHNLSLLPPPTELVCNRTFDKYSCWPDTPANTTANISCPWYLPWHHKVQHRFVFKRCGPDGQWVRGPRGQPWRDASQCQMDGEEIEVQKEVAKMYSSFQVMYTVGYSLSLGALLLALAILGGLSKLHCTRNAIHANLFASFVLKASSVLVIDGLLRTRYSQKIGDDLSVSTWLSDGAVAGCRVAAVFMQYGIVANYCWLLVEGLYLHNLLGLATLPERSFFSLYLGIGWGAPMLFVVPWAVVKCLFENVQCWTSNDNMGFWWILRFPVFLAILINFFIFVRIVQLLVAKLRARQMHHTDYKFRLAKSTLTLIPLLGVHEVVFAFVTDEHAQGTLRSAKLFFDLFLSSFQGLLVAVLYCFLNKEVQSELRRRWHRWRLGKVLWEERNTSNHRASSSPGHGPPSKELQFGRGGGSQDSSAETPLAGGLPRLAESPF

GLP-1 receptor [3] = target: GLP-1 receptor (UniProt P43220 24-463, limits assumed)
glucagon receptor [4] = target: glucagon receptor (UniProt P47871 26-477, limits assumed); remark: listed apart in the source
Target sequence in this assay (P47871 26-477 limits assumed): as above

GIP receptor [5] = target: T2, GIP receptor; remark: listed apart in the source
GLP-1 receptor [6] = target: GLP-1 receptor (UniProt P43220 24-463, limits assumed); remark: listed apart in the source

Binder	EC50, nM; GIP Receptor (GIP receptor [1]) [nM]	relative activity; GIP Receptor (GIP receptor [1]) [%]	EC50, nM; Glucagon Receptor (glucagon receptor [2]) [nM]	relative activity; Glucagon Receptor (glucagon receptor [2]) [%]	EC50, nM; GLP-1 Receptor (GLP-1 receptor [3]) [nM]	relative activity; GLP-1 Receptor (GLP-1 receptor [3]) [%]	EC50 (glucagon receptor [4]) [nM]	relative activity (glucagon receptor [4]) [%]	EC50 (GIP receptor [5]) [nM]	relative activity (GIP receptor [5]) [%]	EC50 (GLP-1 receptor [6]) [nM]	relative activity (GLP-1 receptor [6]) [%]
Y[Aib]EGTFTSDYSIYLDKQAA[Aib]EFVNWLLAGGPSSGAPPPSK(Myristoyl)C-NH2 (also: homodimer: two monomers linked by a disulfide bond between their C-terminal Cys41 residues) [mt-354]	0.0046	91.7	2.61	1.45	0.0088	137	–	–	–	–	–	–
Y[Aib]EGTFTSDYSIYLDKQAA[Aib]EFVNWLLAGGPSSGAPPPSK([γGlu-γGlu-Palmitoyl])-NH2 [mt-367]	0.0014	–	0.82	–	0.0039	–	–	–	–	–	–	–
Y[Aib]EGTFTSDYSIYLDEQAAKEFVNWLLAGGPSSGAPPPSC(PEG)-NH2 (lactam 16-20; reading uncertain; also: PEG on Cys40 via thioether from haloacetyl) [mt-294]	0.373	2.95	230	0.01	0.0608	12.7	–	–	–	–	–	–
Y[Aib]QGTFTSDYSIYLD[Aib]QAAKEFVNWLLAGGPSSGAPPPSC(PEG 40 kDa″)-NH2 [mt-248]	–	–	–	–	–	–	16.7	0.37	3.23	0.53	0.103	9.71
Y[Aib]QGTFTSDYSIYLD[Aib]QAAKEFVNWLLAGGPSSGAPPPSC-NH2 (N-terminus assumed; SMILES CC[C@H](C)[C@H](NC(=O)[C@H](CO)NC(=O)[C@H](Cc1ccc(O)cc1)NC(=O)[C@H](CC(=O)O)NC(=O)[C@H](CO)NC(=O)[C@@H](NC(=O)[C@H](Cc1ccccc1)NC(=O)[C@@H](NC(=O)CNC(=O)[C@H](CCC(N)=O)NC(=O)C(C)(C)NC(=O)[C@@H](N)Cc1ccc(O)cc1)[C@@H](C)O)[C@@H](C)O)C(=O)N[C@@H](Cc1ccc(O)cc1)C(=O)N[C@@H](CC(C)C)C(=O)N[C@@H](CC(=O)O)C(=O)NC(C)(C)C(=O)N[C@@H](CCC(N)=O)C(=O)N[C@@H](C)C(=O)N[C@@H](C)C(=O)N[C@@H](CCCCN)C(=O)N[C@@H](CCC(=O)O)C(=O)N[C@@H](Cc1ccccc1)C(=O)N[C@H](C(=O)N[C@@H](CC(N)=O)C(=O)N[C@@H](Cc1c[nH]c2ccccc12)C(=O)N[C@@H](CC(C)C)C(=O)N[C@@H](CC(C)C)C(=O)N[C@@H](C)C(=O)NCC(=O)NCC(=O)N1CCC[C@H]1C(=O)N[C@@H](CO)C(=O)N[C@@H](CO)C(=O)NCC(=O)N[C@@H](C)C(=O)N1CCC[C@H]1C(=O)N1CCC[C@H]1C(=O)N1CCC[C@H]1C(=O)N[C@@H](CO)C(=O)N[C@@H](CS)C(N)=O)C(C)C) [mt-241]	–	–	–	–	–	–	2.84	3.73	0.252	4.37	0.023	130
Y[Aib]QGTFISDYSIYLDKQAA[Aib]EFVNWLLAGGPSSGAPPPSK-NH2 (N-terminus assumed; SMILES CC[C@H](C)[C@H](NC(=O)[C@H](CO)NC(=O)[C@H](Cc1ccc(O)cc1)NC(=O)[C@H](CC(=O)O)NC(=O)[C@H](CO)NC(=O)[C@@H](NC(=O)[C@H](Cc1ccccc1)NC(=O)[C@@H](NC(=O)CNC(=O)[C@H](CCC(N)=O)NC(=O)C(C)(C)NC(=O)[C@@H](N)Cc1ccc(O)cc1)[C@@H](C)O)[C@@H](C)CC)C(=O)N[C@@H](Cc1ccc(O)cc1)C(=O)N[C@@H](CC(C)C)C(=O)N[C@@H](CC(=O)O)C(=O)N[C@@H](CCCCN)C(=O)N[C@@H](CCC(N)=O)C(=O)N[C@@H](C)C(=O)N[C@@H](C)C(=O)NC(C)(C)C(=O)N[C@@H](CCC(=O)O)C(=O)N[C@@H](Cc1ccccc1)C(=O)N[C@H](C(=O)N[C@@H](CC(N)=O)C(=O)N[C@@H](Cc1c[nH]c2ccccc12)C(=O)N[C@@H](CC(C)C)C(=O)N[C@@H](CC(C)C)C(=O)N[C@@H](C)C(=O)NCC(=O)NCC(=O)N1CCC[C@H]1C(=O)N[C@@H](CO)C(=O)N[C@@H](CO)C(=O)NCC(=O)N[C@@H](C)C(=O)N1CCC[C@H]1C(=O)N1CCC[C@H]1C(=O)N1CCC[C@H]1C(=O)N[C@@H](CO)C(=O)N[C@@H](CCCCN)C(N)=O)C(C)C) [mt-357]	0.0066	206	0.042	261	1.25	0.86	–	–	–	–	–	–
Y[Aib]QGTFISDYSIYLDKQAA[Aib]EFVNWLLAGGPSSGAPPPSK(Palmitoyl)-NH2 (N-terminus assumed; SMILES CCCCCCCCCCCCCCCC(=O)NCCCC[C@H](NC(=O)[C@H](CO)NC(=O)[C@@H]1CCCN1C(=O)[C@@H]1CCCN1C(=O)[C@@H]1CCCN1C(=O)[C@H](C)NC(=O)CNC(=O)[C@H](CO)NC(=O)[C@H](CO)NC(=O)[C@@H]1CCCN1C(=O)CNC(=O)CNC(=O)[C@H](C)NC(=O)[C@H](CC(C)C)NC(=O)[C@H](CC(C)C)NC(=O)[C@H](Cc1c[nH]c2ccccc12)NC(=O)[C@H](CC(N)=O)NC(=O)[C@@H](NC(=O)[C@H](Cc1ccccc1)NC(=O)[C@H](CCC(=O)O)NC(=O)C(C)(C)NC(=O)[C@H](C)NC(=O)[C@H](C)NC(=O)[C@H](CCC(N)=O)NC(=O)[C@H](CCCCN)NC(=O)[C@H](CC(=O)O)NC(=O)[C@H](CC(C)C)NC(=O)[C@H](Cc1ccc(O)cc1)NC(=O)[C@@H](NC(=O)[C@H](CO)NC(=O)[C@H](Cc1ccc(O)cc1)NC(=O)[C@H](CC(=O)O)NC(=O)[C@H](CO)NC(=O)[C@@H](NC(=O)[C@H](Cc1ccccc1)NC(=O)[C@@H](NC(=O)CNC(=O)[C@H](CCC(N)=O)NC(=O)C(C)(C)NC(=O)[C@@H](N)Cc1ccc(O)cc1)[C@@H](C)O)[C@@H](C)CC)[C@@H](C)CC)C(C)C)C(N)=O) [mt-358]	0.0045	306	0.0087	1270	0.083	13	–	–	–	–	–	–
Y[Aib]QGTFTSDYSIYLDEQAAKEFVNWLLAGGPSSGAPPPSK([Ala-Cys(PEG 40 kDa)-Ac])-NH2 (lactam 16-20) [mt-225]	1.9	–	2.71	–	0.098	–	–	–	–	–	–	–
